Reference: patent US20110086770A1 (ANAPHORE, published 2011)
Where a chain is given by its changes, count along the chain named. Names may count otherwise.

B1: 101-113-6C108 ATRIMER (designed binder)
chain: EPPTQKPKKIVNAKKDVVNTKMFEELKSRLDTLAQEVALLKEQQALQTVCLKGTKVHMKCFLAFTQTKTFHEASEDCISRGGTLSTPQTGSENDALYEYLRQSVGNEAEIWLGLNGSALTNTWVDMTGARIAYKNWEPPPPHHPMGGFGVFGENCAVLSGAANGKWFDKRCRDQLPYICQFGIV
B2: 101-51-1A4 ATRIMER (designed binder)
chain: B1 chain with P138R, P140A, P141L, H142V, H143Q, M145R
notes: also called ATRIMER complex 1A4
B3: 101-51-1A7 ATRIMER (designed binder)
chain: B1 chain with P138R, P141L, H142Y, H143Q, M145G, F148W
B4: A9E ATRIMER (designed binder)
chain: B1 chain with P138T, P139E, P140I, P141T, H142A, H143Q, M145D, F148L, V150Y, F151W
B5: 4G8 ATRIMER (designed binder)
chain: EPPTQKPKKIVNAKKDVVNTKMFEELKSRLDTLAQEVALLKEQQALQTVCLKGTKVHMKCFLAFTQTKTFHEASEDCISRGGTLSTPQTGSENDALYEYLRQSVGNEAEIWLGLNGSRRSGVWVDMTGARIAYKNWETEITAQPDGGFGVFGENCAVLSGAANGKWFDKRCRDQLPYICQFGIV
modifications: Forms a homotrimer through the tetranectin coiled coil; one protomer is given.
notes: made in E. coli; also called 001-69.4G8; ATRIMER complex 4G8

Each binder was assayed against T1, recombinant human IL-12Rβ1/Fc fusion protein (R&D Systems) (human, UniProt P42701 24-540, limits assumed) (assay: Biacore, IL-12Rβ1/Fc captured).
T1 construct: bought; also called Il12Rb1
Experimental: (§1) A Biacore 3000 biosensor (GE Healthcare) was used to evaluate the interaction of human IL-12Rβ1/Fc or IL-12Rβ2/Fc with IL-23R binding ATRIMER™ complexes. Immobilization of an anti-human IgG Fc antibody (GE Healthcare) to the CM5 chip (GE Healthcare) was performed using standard amine coupling chemistry, and this modified surface was used to capture recombinant human IL-12Rβ1/Fc or IL-12Rβ2/Fc fusion protein (R&D Systems). A low-density receptor surface, less than 200 RU, was used for all of the analyses. ATRIMER™ complex dilutions (100 nM) were injected over the IL-12R surface at 30 μl/min. Data collection was 3 minutes for the association and 5 minutes for dissociation. The anti-human IgG surface was regenerated with a 30 s pulse of 3M magnesium chloride. All sensorgrams were double-referenced against an anti-human IgG Fc antibody surface as well as buffer injections.

| Binder | binding result |
| --- | --- |
| B1 | no binding (tested: 100 nM) |
| B2 | no binding (tested: 100 nM) |
| B3 | no binding (tested: 100 nM) |

The binders below were run against T2, recombinant human IL-12Rβ2/Fc fusion protein (R&D Systems) (human, UniProt Q99665 24-622, limits assumed) (assay: Biacore, IL-12Rβ2/Fc captured).
T2 construct: bought; also called Il12Rb2
T2 sequence (looked up): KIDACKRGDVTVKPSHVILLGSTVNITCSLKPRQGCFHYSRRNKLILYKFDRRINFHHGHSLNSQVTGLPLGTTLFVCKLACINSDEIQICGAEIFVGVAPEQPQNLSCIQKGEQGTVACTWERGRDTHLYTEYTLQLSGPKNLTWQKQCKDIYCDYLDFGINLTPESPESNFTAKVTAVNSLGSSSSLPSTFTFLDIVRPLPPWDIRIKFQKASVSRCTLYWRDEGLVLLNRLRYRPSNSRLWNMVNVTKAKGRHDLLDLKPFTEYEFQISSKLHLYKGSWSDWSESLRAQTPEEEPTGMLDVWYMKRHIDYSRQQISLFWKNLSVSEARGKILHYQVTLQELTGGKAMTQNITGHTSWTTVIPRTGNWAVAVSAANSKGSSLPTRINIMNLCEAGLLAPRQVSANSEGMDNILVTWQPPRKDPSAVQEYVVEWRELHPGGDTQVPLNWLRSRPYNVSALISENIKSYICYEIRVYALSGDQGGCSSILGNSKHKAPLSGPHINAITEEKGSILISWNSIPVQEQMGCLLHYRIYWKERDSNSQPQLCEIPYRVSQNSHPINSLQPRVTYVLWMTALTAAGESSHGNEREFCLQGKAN
Experimental: as §1

| Binder | binding result |
| --- | --- |
| B1 | no binding (tested: 100 nM) |
| B2 | no binding (tested: 100 nM) |
| B3 | no binding (tested: 100 nM) |

Each binder was assayed against T3, recombinant human IL-23R/Fc chimera (R&D Systems) (human, UniProt Q5VWK5 24-353) (assay: competition ELISA against IL-23).
T3 construct: bought; also called human IL-23R/Fc fusion protein; rhIL23RFc
T3 sequence (looked up): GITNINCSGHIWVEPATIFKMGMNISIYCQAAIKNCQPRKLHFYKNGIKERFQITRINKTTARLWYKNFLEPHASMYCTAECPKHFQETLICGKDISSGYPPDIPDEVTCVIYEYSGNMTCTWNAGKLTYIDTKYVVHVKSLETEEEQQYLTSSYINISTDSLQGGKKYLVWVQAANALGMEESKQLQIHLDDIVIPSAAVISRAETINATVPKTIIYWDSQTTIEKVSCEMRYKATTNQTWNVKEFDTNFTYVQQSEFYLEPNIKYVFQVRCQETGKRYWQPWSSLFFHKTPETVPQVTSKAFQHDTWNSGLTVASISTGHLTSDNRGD
Experimental: (§2) Assays were performed generally as follows. Individual wells in Immulon HB2 plates were incubated overnight at 4° C. with 100 μL PBS containing 100 ng of an anti-human IgG Fc (R&D MAB 110 clone 97924). Plates were washed five times with PBS/0.05% Tween 20, and wells were incubated for 1.5 h at RT with 100 μL each of PBS containing 50 ng of recombinant human IL-23R/Fc. […] Competitor was included at a final concentration of 1 μg/mL. After incubation, plates were washed as described and wells were incubated for 40 min at RT with 100 μL each of PBS containing a 1:5000 dilution of streptavidin-HRP conjugate (Pierce catalog no. 21130). After washing, wells were incubated with 100 μL each of TMB (BioFX Lab catalog no. TMBH-1000-0) for up to 30 min at RT. Reactions were stopped with an equal volume of 0.2 M sulfuric acid.
A number of ATRIMER™ polypeptide complexes were tested in competition ELISA more extensively to determine IC50 values.

| Binder | IC50 [nM] |
| --- | --- |
| B4 | 2.6 |
| B5 | 1.4 |

Target: T3, recombinant human IL-23R/Fc chimera …
Test: competition ELISA against IL-23
Remark: another data set of the same source
Experimental: as §2

| Binder | Ratio IC50 to 056-53.H4E IC50 [ratio] |
| --- | --- |
| B1 | 0.9 |
| B2 | 1 |
| B3 | 1 |

Each binder was assayed against T3, recombinant human IL-23R/Fc chimera … (assay: SPR (Biacore), captured IL-23R/Fc, ATRIMER).
Experimental: A Biacore 3000 biosensor (GE Healthcare) was used to evaluate the interaction of human IL-23R and receptor binders. Immobilization of an anti-human IgG Fc antibody (GE Heathcare) to the CM5 chip (Biacore) was performed using standard amine coupling chemistry, and this modified surface was used to capture a recombinant human IL-23R/Fc fusion protein (R&D Systems). A low-density receptor surface, less than 200 RU, was used for all of the analyses. ATRIMER™ polypeptide complex dilutions (1-500 nM) were injected over the IL-23R surface at 30 μl/min and kinetic constants were derived from the sensorgram data using the Biaevaluation software (version 3.1, GE Healthcare). Data collection was 3 minutes for the association and 5 minutes for dissociation. The anti-human IgG surface was regenerated with a 30 s pulse of 3M magnesium chloride. All sensorgrams were double-referenced against an activated and blocked flow-cell as well as buffer injections.

| Binder | Ka [M⁻¹] | Kd [nM] | koff [s⁻¹] | kon [M⁻¹ s⁻¹] |
| --- | --- | --- | --- | --- |
| B4 | 5.21e+08 | 1.92 | 0.00033 | 172000 |
| B1 | 1.63e+09 | 0.613 | 0.000382 | 623000 |
| B5 | 1.35e+08 | 7.42 | 0.000805 | 109000 |
| B2 | 2.58e+09 | 0.388 | 0.000395 | 1.02e+06 |
| B3 | 2.24e+09 | 0.447 | 0.000187 | 419000 |
